The values that follow come from US20060083685 (published 2006).

One assay addresses T1, delta opioid receptor (rat, UniProt P33533).
T1 chain: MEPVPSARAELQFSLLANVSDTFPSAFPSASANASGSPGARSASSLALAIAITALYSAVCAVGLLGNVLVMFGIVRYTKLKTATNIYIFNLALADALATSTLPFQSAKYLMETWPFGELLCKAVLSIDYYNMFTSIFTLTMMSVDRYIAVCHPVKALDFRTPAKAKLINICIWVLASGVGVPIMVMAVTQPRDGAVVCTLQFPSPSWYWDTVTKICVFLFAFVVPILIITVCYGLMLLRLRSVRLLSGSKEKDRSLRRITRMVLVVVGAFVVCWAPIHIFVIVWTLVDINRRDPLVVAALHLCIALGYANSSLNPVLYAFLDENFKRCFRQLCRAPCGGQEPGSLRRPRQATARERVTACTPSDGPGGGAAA
Put plainly: competition, radioligand, 25C.

The target in a further assay is T2, mu opioid receptor (rat, UniProt P33535).
T2 chain: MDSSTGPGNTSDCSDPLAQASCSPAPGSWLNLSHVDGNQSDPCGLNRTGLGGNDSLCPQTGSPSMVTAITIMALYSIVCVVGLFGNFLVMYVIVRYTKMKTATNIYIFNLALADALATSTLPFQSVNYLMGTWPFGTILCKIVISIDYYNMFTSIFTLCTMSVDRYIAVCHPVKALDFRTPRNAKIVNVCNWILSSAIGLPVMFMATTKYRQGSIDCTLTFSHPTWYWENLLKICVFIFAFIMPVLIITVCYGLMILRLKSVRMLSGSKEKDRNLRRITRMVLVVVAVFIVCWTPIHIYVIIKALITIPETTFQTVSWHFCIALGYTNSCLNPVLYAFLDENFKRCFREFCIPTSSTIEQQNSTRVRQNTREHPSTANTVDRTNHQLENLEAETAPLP
Description: competition, radioligand, 25C.

Square brackets hold non-standard residues; d marks the D form. Ends that are not written are not given here.

With YC[dF]G-NH2 (also: rhenium complex) [Tyr-Cys-D-Phe-Gly-NH2], the binding result with delta opioid receptor and with mu opioid receptor was “no binding” each time.
As to YG[dF]C-NH2 (also: rhenium complex) [Tyr-Gly-D-Phe-Cys-NH2], the binding result in the assay with delta opioid receptor and in the assay with mu opioid receptor was “no binding” in each case.
